From patent US10047131B2, “Peptides and combination of peptides for use in immunotherapy against ovarian cancer and other cancers” (immatics biotechnologies GmbH, priority 2015, dated 2018)

Each substance was assayed against HLA-A*02:01 (Homo sapiens, UniProt P04439, D140Y/D185E/D98H/E176V/E277Q/G131W/G231S/I119V/I121R/I166T/I218V/L300P/L318F/N151K/N90K/P208A/P217A/Q86G/Q94H/R138H/R169H/T345S) (assay: MHC binding assay (UV-ligand exchange, ELISA of exchange yield)). Settings: binding to HLA-A*02:01, UV-ligand exchange.
Outline: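 ELISA of β2m retained on streptavidin-captured, 100-fold diluted complexes (HRP anti-β2m, TMB, 450 nm) gives the yield. Complexes come from UV-triggered exchange of a photocleavable placeholder peptide for the candidate, which must bind to stop complex dissociation.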

Row | Peptide exchange (MHC class I binding score, peptide exchange yield) | Substance
1 | “+++” (≥50 = +++) | 244 (SLFGGTEITI; listed as Homo sapiens) [compound 244]
2 | “+++” (≥50 = +++) | 245 (SMIDDLLGV; listed as Homo sapiens) [compound 245]
3 | “+++” (≥50 = +++) | 246 (LLWEVVSQL; listed as Homo sapiens) [compound 246]
4 | “+++” (≥50 = +++) | 247 (VLLPNDLLEKV; listed as Homo sapiens) [compound 247]
5 | “+++” (≥50 = +++) | 248 (FLFPNQYVDV; listed as Homo sapiens) [compound 248]
6 | “+++” (≥50 = +++) | 249 (LLDGFLVNV; listed as Homo sapiens) [compound 249]
7 | “+++” (≥50 = +++) | 250 (ALSEEGLLVYL; listed as Homo sapiens) [compound 250]
8 | “++” (≥20% = ++) | 251 (ALYTGFSILV; listed as Homo sapiens) [compound 251]
9 | “+++” (≥50 = +++) | 252 (LLIGTDVSL; listed as Homo sapiens) [compound 252]
10 | “++” (≥20% = ++) | 253 (GLDAATATV; listed as Homo sapiens) [compound 253]
11 | “+++” (≥50 = +++) | 254 (TLLAFIMEL; listed as Homo sapiens) [compound 254]
12 | “+++” (≥50 = +++) | 255 (VLASYNLTV; listed as Homo sapiens) [compound 255]
13 | “+++” (≥50 = +++) | 256 (FLPPEHTIVYI; listed as Homo sapiens) [compound 256]
14 | “+++” (≥50 = +++) | 257 (SIFSAFLSV; listed as Homo sapiens) [compound 257]
15 | “++” (≥20% = ++) | 258 (ELAERVPAI; listed as Homo sapiens) [compound 258]
16 | “++” (≥20% = ++) | 261 (YVLEFLEEI; listed as Homo sapiens) [compound 261]
17 | “+++” (≥50 = +++) | 262 (LLWGDLIWL; listed as Homo sapiens) [compound 262]
18 | “+++” (≥50 = +++) | 263 (LLVSNLDFGV; listed as Homo sapiens) [compound 263]
19 | “+++” (≥50 = +++) | 264 (SLQEQLHSV; listed as Homo sapiens) [compound 264]
20 | “++” (≥20% = ++) | 265 (LLFGGTKTV; listed as Homo sapiens) [compound 265]
21 | “+++” (≥50 = +++) | 266 (KITDTLIHL; listed as Homo sapiens) [compound 266]
22 | “+++” (≥50 = +++) | 267 (ALQDFLLSV; listed as Homo sapiens) [compound 267]
23 | “++” (≥20% = ++) | 269 (RVLEVGALQAV; listed as Homo sapiens) [compound 269]

Row | Peptide exchange (MHC class I binding score, peptide exchange yield) | Substance
24 | “++” (≥20% = ++) | 270 (LLLDEEGTFSL; listed as Homo sapiens) [compound 270]
25 | “+++” (≥50 = +++) | 271 (LVYPLELYPA; listed as Homo sapiens) [compound 271]
26 | “+++” (≥50 = +++) | 272 (ALGNTVPAV; listed as Homo sapiens) [compound 272]
27 | “++” (≥20% = ++) | 273 (NLFQSVREV; listed as Homo sapiens) [compound 273]
28 | “++” (≥20% = ++) | 274 (SLLFSLFEA; listed as Homo sapiens) [compound 274]
29 | “++” (≥20% = ++) | 275 (YLVYILNEL; listed as Homo sapiens) [compound 275]
30 | “+++” (≥50 = +++) | 276 (ALFTFSPLTV; listed as Homo sapiens) [compound 276]
31 | “++” (≥20% = ++) | 277 (LLPPLESLATV; listed as Homo sapiens) [compound 277]
32 | “++” (≥20% = ++) | 278 (QLLDVVLTI; listed as Homo sapiens) [compound 278]
33 | “++” (≥20% = ++) | 279 (ALWGGTQPLL; listed as Homo sapiens) [compound 279]
34 | “+++” (≥50 = +++) | 280 (VLPDPEVLEAV; listed as Homo sapiens) [compound 280]
35 | “+++” (≥50 = +++) | 281 (ILRESTEEL; listed as Homo sapiens) [compound 281]
36 | “+++” (≥50 = +++) | 282 (LLADVVPTT; listed as Homo sapiens) [compound 282]
37 | “+++” (≥50 = +++) | 283 (ALYIGDGYVIHLA; listed as Homo sapiens) [compound 283]
38 | “+++” (≥50 = +++) | 284 (ILLSQTTGV; listed as Homo sapiens) [compound 284]
39 | “+++” (≥50 = +++) | 285 (QLLHVGVTV; listed as Homo sapiens) [compound 285]
40 | “+++” (≥50 = +++) | 286 (YLFPGIPEL; listed as Homo sapiens) [compound 286]
41 | “+++” (≥50 = +++) | 287 (FLNEFFLNV; listed as Homo sapiens) [compound 287]
42 | “+++” (≥50 = +++) | 288 (NLINEINGV; listed as Homo sapiens) [compound 288]
43 | “++++” (≥75% = ++++) | 289 (VLLEIEDLQV; listed as Homo sapiens) [compound 289]
44 | “+++” (≥50 = +++) | 295 (VLDRESPNV; listed as Homo sapiens) [compound 295]
45 | “+++” (≥50 = +++) | 296 (FMEGAIIYV; listed as Homo sapiens) [compound 296]
46 | “+++” (≥50 = +++) | 297 (VLADIELAQA; listed as Homo sapiens) [compound 297]

Row | Peptide exchange (MHC class I binding score, peptide exchange yield) | Substance
47 | “+++” (≥50 = +++) | 298 (VMITKLVEV; listed as Homo sapiens) [compound 298]
48 | “+++” (≥50 = +++) | 299 (YLLETSGNL; listed as Homo sapiens) [compound 299]
49 | “+++” (≥50 = +++) | 300 (ALLGQTFSL; listed as Homo sapiens) [compound 300]
50 | “+++” (≥50 = +++) | 301 (FLVEDLVDSL; listed as Homo sapiens) [compound 301]
51 | “+++” (≥50 = +++) | 302 (ALLQEGEVYSA; listed as Homo sapiens) [compound 302]
52 | “++++” (≥75% = ++++) | 303 (AILPQLFMV; listed as Homo sapiens) [compound 303]
53 | “+++” (≥50 = +++) | 304 (MTLGQIYYL; listed as Homo sapiens) [compound 304]
54 | “++++” (≥75% = ++++) | 305 (SIANFSEFYV; listed as Homo sapiens) [compound 305]
55 | “+++” (≥50 = +++) | 306 (ALVNVQIPL; listed as Homo sapiens) [compound 306]
56 | “+++” (≥50 = +++) | 307 (ALPVSLPQI; listed as Homo sapiens) [compound 307]
57 | “+++” (≥50 = +++) | 308 (SQYSGQLHEV; listed as Homo sapiens) [compound 308]
58 | “+++” (≥50 = +++) | 309 (GLFDGVPTTA; listed as Homo sapiens) [compound 309]
59 | “++++” (≥75% = ++++) | 310 (FLVDTPLARA; listed as Homo sapiens) [compound 310]
60 | “+++” (≥50 = +++) | 311 (RLYTGMHTV; listed as Homo sapiens) [compound 311]
61 | “+++” (≥50 = +++) | 312 (IISDLTIAL; listed as Homo sapiens) [compound 312]
62 | “+++” (≥50 = +++) | 313 (VLFDDELLMV; listed as Homo sapiens) [compound 313]
63 | “+++” (≥50 = +++) | 314 (ALIAEGIALV; listed as Homo sapiens) [compound 314]
64 | “+++” (≥50 = +++) | 315 (YLQDVVEQA; listed as Homo sapiens) [compound 315]
65 | “+++” (≥50 = +++) | 316 (ILLERLWYV; listed as Homo sapiens) [compound 316]
66 | “+++” (≥50 = +++) | 317 (SLAALVVHV; listed as Homo sapiens) [compound 317]
67 | “++” (≥20% = ++) | 318 (GLINTGVLSV; listed as Homo sapiens) [compound 318]
